According to the nanobody polyreactivity screen of Harvey et al. (2022):

Experiment: yeast display, Sf9 membrane polyspecificity reagent, FACS + sequencing; frameworks hold sequencing errors
Outline: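 Galactose induction of a Saccharomyces cerevisiae BJ5465 synthetic nanobody display library ran 36–48 hours. The cells were then stained for 1 hour at 4 °C with 10% biotinylated, detergent-solubilized Sf9 membrane reagent, pulled down on streptavidin microbeads and FACS-sorted into low and high (top ~1%) gates on expression and reagent-binding fluorescence. Labels for polyreactivity follow the gate of origin.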

Sequence | polyreactivity (PSR sort gate)
QVQLVESGGGLVQAGGSLRLSCAASGITFRTYAMGWYRQAPGKERELVAAISSRGGSTYYADSVKGRFTISRDNAKNTVYLQMNSLKPEDTAVYYCNARDVRYYEYGYWGQGTQVTVSS | high polyreactivity
QVQLVESGGGLVQAGGSLRLSCAASGRTFDDYAMGWDRQAPGKERELVAAITQNGRDTYADSVKGRFTISRDNSKKYRLFTDVQPVTGRYRGLLLRCVRYEVNLYDYWGQGTQVTVST | low polyreactivity
QVQLVESGGGLVQAGGSLRLSCAACGRIFVRNAMGWYRQAPGKERELVADITNGGSTNYADSVKGRFTISRDNAKNTVYLQMNSLKPEDTAVYYCGAVYYSTDYYFWYDYWGQGTQVTVSS | low polyreactivity
QVQLVESGGGLVQAGGSLRLSCAASGFIFYRNAMGWYRQAPGKERELVAAISKSGGITYYADSVKGRFTISRDNAKNTVYLQMNSLKPEDTAVYYCAKASQNGYDYWGQGTQVTVSS | high polyreactivity
QVQLVESGGGLVQAGGSLRLSCAASGRTFSYYTMGWYRQAPGKERELVAAITSSGGSTYYADSVKGRFTISRDNAKNTVYLQMNSLKPEDTAVYYCAVLNYAGKYYYWGQGTQVTVSS | high polyreactivity
QFQLVESGGGLVQAGGSLRLSCAASGSTFTNYAMGWYRQAPGKEREFVAAITFRGGRTYYADSVKGRFTISRHNAKNTVYLQLNSLKPEDTAVYYCNKRTSPKRFDYWGQGTQVTVSS | high polyreactivity
QVQLVESGGGLVQAGGSLRLSCAASGFTFDYYAMGWYRQAPGKERELVAAITSGSITYYADSVKGRFTISRDNAKNTVYLQMNSLKPEDTAVYYCARYGYRRVGSRWAEFDYWGQGTQVTVSS | high polyreactivity
QVQLVESGGGLVQAGGSLRLSCAASGRIFEDNGMGWYRQAPGKEREFVATISWDGDRTYYADSVKGRFTISRDNAKNTVYLQMNSLKPEDTAVYYCNADLPLWPVRGYEYWGQGTQVTVSS | low polyreactivity
QDQLVESGGGLDQAGGSLRLSCAASGRIFQKYAMACYRQAPGKERELVAAISSGDSTYADSVKGRFTISRDNAKNTVYLQMNSLKPEDTAVYYCAADSHYQEDFRIQYDYWGQGTQVTVSS | low polyreactivity
QVQLVESGGGLVQGGGSLSLSCAASGSNFWRYAMGWYRQAPGKEMELVAVISDRGCITYYADSVKGRFTISRDNAKNTVYLQMNSLKPEDTAVYYCNAVDSDRSDPSEYDYWGQGTQVTLSS | low polyreactivity
QVQLVESGGGLVQAGGSLRLSCAASGTFPDYAMGWYRQAPGKERELVAAITYRGGSTYYADSVKGRFTISRDNAKNTVYLQMNSLKPEDTAVYYCAADVVNAYKSLLVGDMYYWGQGTQVTVSS | high polyreactivity
QVQLVESGGGLVQAGGSLRLSCAASGSTFSTYAMGWYRQAPGKERELVAAIRWSGGSTYYADSVKGRFTISRDNAKNTVYLQMNSLKPEDTAVYYCATDAPDRTDSDSGFDAGYDYWGQGTQVTLSS | low polyreactivity
QVQLVESGGGLVQAGGSLRLSCAASGFIFDLYAMGWSRQAPGKERELVAAITYSGGSTYYADSVKGRFTISRDNAKNTVYLQMNSLKPEDTAVYYCAAYYGGRGYWGQGTQVTVSS | low polyreactivity
QVQLVESGGGLVQAGGSLRLSCAASRFIFWPYAMGWYRPAPGKERELVAAITTGGSTNYADSVKGRFTISRDNAKNTVYFQMNSLKPEDTAVYYCAKGYYFGYYEFVYWGQGTQVTVSS | high polyreactivity
QVQLVESGGGLDQAGGSLRLSCAASGFILGDYAMGWYRQAPGKERELVAAITSSGGSTYYADSVKGRFTISRDNAKNTVYFQMNSLKPEDTAVYYCNTVYVYGPEYDYWGQGTQVTVSS | high polyreactivity
QVQLVESGGGLVQAGGSLRLSCAASGRTFDHYAMGWYRQAPGKERELVAAITSGGSTYYADSVKGRFTISRDNAKNTVYLQRNSLKPEDTAVYYCNKDSSFWGYYIAQVNERDYWGQGTQVTVSS | low polyreactivity
QVQLVESGGGLVQAGGSLRLSCAASGSTFNYYALGGYRQAPGKERELVAAISTSDGSTYYADSVKGRFTISRDNAKITVYVQMNSLKPEDTAVYYCAADSYERFPSYYYWGQGTQVTVSS | low polyreactivity
QVHLVESGGGIVQAGGSLRLSCAASGIIFHWYAMGWYRQAPGKERELVAAITQSGGSTSYADSVKGRFTISRDNAKNTVYLQMNSLKPEDTAVYNCSKDYAYTLWENYYAFNYWGQGTQVTVSS | low polyreactivity
QVQLVESGGGLVQAGGSLRLSCAASGITFDWNAMGWYRQAPGKERELVAAISSGASTYYADSVKGRFTISRDNAKNTVYLQMNSLKPEDTAVYYCAKRHAINIHAVGPYYTSMDYWGQGTQVTVSS | low polyreactivity
QVQLVESGGGLDQAGGSLRLSCAASGRTYYLYAMGWYRQAPGKERELVAAITFNGGSTYYADSVKGRFTISRDNGKNTVYLQMNSLKPEDTAVDYCAGRLSKRSGYYYWGQGTQVTVSS | high polyreactivity
QVQLVESGGGLVQAGGSLRLSCAASGRTFTPYTRGWYRQAPGKEREFVPAIRTGGNTYYADSVKGRFTISRDNAKNTVYLQMNSLKPEDTAVYYCAARDRIGYRLYYWGQGTQVTVSS | high polyreactivity
QVQLVESGGGLVQAGGSLRLSCAASGRIFGSYTMGWYRQAPGKERELVAGISRRGGSTYYADSVKGRFTISRDNAKNTVYLQMNGLKPEDTAVYYCAAVSSVFSVRYDYWGQGTQVTVSS | high polyreactivity

Sequence | polyreactivity (PSR sort gate)
QVQLVESGGGLVQAGGSLRLSCAASGITFVTYAMGWYRQAPGKERELVAAISRSGGRTYYADSVKGRFTISRDNAKNTVYLQMNSLKPEDTAVYYCAAERKNKYDYWGQGTQVTVSS | high polyreactivity
QVQLVESGGGLVQAGGSLRLSCAASGRIFSGYVMGWYRQAPGKERELVAVISRSGGSTYYADSVKGRFTISRDNAKNTVYLLMNSLKPEDTAVYYCAAKHIDGSRGYVYWGQGTQVTVSS | low polyreactivity
QVQLVESGGGIVQAGGSLRLSCAASGRTFFHYAMGWYRQAPGKERELVAGISSGGRTKYADSVKGRFTISRDNAKNTVYLQMNSLKPEDTAVYYCAASYIVWLTRGAPRKRFDYWGQGTQVTVSS | high polyreactivity
QVQLVESGGGLVQAGGSLRLSCAASGFTINGNAMGWYRQAPGKERELVAAITWRGGSTYYADSVKGRFTISRDNAKNTVYLQMNSLKPEDTAVYYCNVEGWYDYDYWGQGTQVTVSS | high polyreactivity
QVQLVESGVGLVQAGGSLRLSCAASGSIFPHYAMGWYRQAPGKERELVAAISSGTSTNYADSVKGRFTISRDNAKNTVYLQMNSLKPEDTAVYFCAADYYSGYDSVDGDYNYWGQGTQVTVSS | low polyreactivity
QVQLVESGGGLVQAGGSLRLSCAASGSIFKYFTMGWYRHAPGKERELVAYISSGGSTKYADSVKGRFTISRDNAKNTVYLQMNSLKPEDTAVYYCAKRYYYFYPDYDYWGQGTQVTVSS | high polyreactivity
QVQLVESGGGLVQAGGSLRLSCAASGRIFGPYTMGWYRQAPGKERELVATISYSGSTTYYADSVKGRFTISRDNAKNTVYLQMNSLKPEDTAVYYCNAQYYVFITFDYWGQGTQVTVSS | high polyreactivity
QVQLVESGGGLVQAGGSLRLSCAASGIIIGLYGRGWYRQAPGKERELVAAISSSGGSTYYADSVKGRFTISRDNAKNTVYLQINSLKPEDTAVYYCARVVRSLWGGLYLYDYWGQGTQVTVSS | low polyreactivity
QVQLVESGGGLVQEGGSLRLSCAASGYIFYEYAMGWYRQAPGKERELVAAISYSGGSTYYADSVKGRFTISRDNAKNTVYLQMNSLKPEDTAVYYCAAVGSVRYREGYDYWGQGSQVTVSS | high polyreactivity
QVQLVESGGCLVQAGGSLRLICAASGGLFGTYTMGWYRQAPGKERELVAAIRSSSGRTYYADSVKGRFTISRDNAKNTVYLQMNILKPEDTAVYYCNAKYYGYRVGKYYPFGYWGQGTQVTVSS | high polyreactivity
QVQLVESGGGLVQAGGSLRLSCAASGRIFYYNAMGWYRQAPGKERELVAAIRSSGGTTYYADSVKGRFTISRDNAKNTVYLQMNSLKPEDTAVYYCNARYWVYYVYEYDSWGQGTQVTVSS | low polyreactivity
QVQLVESGGGLVQAGGSLRLSCAASGFIFRRYAMGWYRQAPGKERELVAAISGSGGRTYYADSVKGRFTISRDNAKNTVYLQMNSLKPEDTAVYYCAATYQYLKSGYYWGQGTQVTVSS | high polyreactivity
QVQLVESGGGLVQAGGSLRLSCAASGFIFHSYDMGWYRPAPRKERELVASISRGGGSTYYADSVKGRFTISRDNAMNTVYLQMNSLKPEDTAVYDCSARVYSLGYGGDYWGQGTQVTVSS | high polyreactivity
QVQLVETGGGLVQAGGSLRLSCAASGSISPINAMGWYRQPPGKERELVAAINGGGSTYYADSVKGRFTISRDNAKNTVYLQMNSLKPEDTAVYYCSRDALHYAGSLHRYGYWGQGTQVTLSS | low polyreactivity
QVQLVESGGGLVQAGGSLRLSCAASGSIFESYAMGWYRQAPGKERELVAAITSSGDSTYYADSVKGRFTISRDNAKNTVYLQMNSLKPEDTAVDYCAKRVPTYISTADWGSRYDYWGQGTQVTVSS | low polyreactivity
QVQLVESGGGLVQAGGSLRLSCAASGSTIQSNGMVWYRQAPGKERELVAAITSTDASTSYADSVKGRFTISRDNAKNTVYLQMNSLKPEDTAVYYCAADFPVASGAELDYWGLGTQVTVSS | low polyreactivity
QVQLVESGGGLVQAGGRLRLTCAASGRIFYRYAMGWYRQAPGKERELVASITRSGITHYADSVKGRFTISRDNAKNTVYLQMNSLKPEDTAVYYCNARRGSPAPYDYWGKGTQVTVSS | high polyreactivity
QVQLVESGGGLVQAGGSLRLSCAASGSTFASNPMGGYRQAPGKERELVAAISGSGGSTYYADSVKGRFTISRDNAKNTVYLQMNSMTPEDTAVYYCNAAVAYYSYSYYTKVGVDYWGQGSQVTVSS | high polyreactivity
QVQLVESGGGLVQAGGSLRLSCGASGYIFGYYAMGWYRQAPRKERDLVAAISSSGGSTYYADSVKGRFTISRDHAKNTVYLQMNSLKPEDTAVYYCAAYRWGTHDRLDYWGQGTQVTVSS | high polyreactivity
QVHLVESGGGLVQAGGSLRLSCAASGRIFRFYAMGWYRQAPGKERELVADISRRGGSTYYADSVKGRFTISRDNAKNTVYLQMNSLKPEDTAVYYCNARWYRTGSTYHEDYWGQGTQVTVSS | high polyreactivity
QVQLVESGGGLVQAGGSLRLSCAASGRTFRYYAMGWYRQEPGKERELVAVITSGASTYYADSVKGRFTISRDNAKNTVYLQMNCLKPEDTAVYYCNARYSWKYDSWGQGTQVTVSS | high polyreactivity
